From patent US10494415B2, “Insulin-like growth factor 2 (IGF2) binding agents” (Cancer Research Technology Limited, priority 2015, dated 2019)
Marks after values point to notes of the source that are not given here.

Key:
IGF2^1-104 = target: T1, IGF2^1-104 (Homo sapiens, UniProt P01344); assay: SPR of IGF forms on Fc-domain 11 proteins immobilised by antibody capture; assay type: binding; details: HBS-EP pH 7.4
T1 construct: pro-IGF2 (pro-IGF2^1-104 [11 kDa]
Procedure: (§1) SPR analysis of the interaction of recombinant IGF1 and IGF2 forms with Fc-domain 11 proteins immobilised by antibody capture (CM5 chip containing monoclonal mouse anti-human IgG antibody immobilised by amine coupling). Measurements were carried out at 25° C. in HBS-EP buffer (pH 7.4).
(§2) Final kinetic analysis of mutants by SPR was conducted using a Biacore T200 biosensor at 25° C. in either HBS-EP (10 mM HEPES pH 7.4, 150 mM NaCl, 3 mM EDTA, and 0.005% (v/v) surfactant P20) or MES-EP (20 mM MES pH 6.5, 150 mM NaCl, 3 mM EDTA, and 0.005% (v/v) surfactant P20) at a flow-rate of 40 μL min^−1. […] For the analysis of the Fc-domain 11^AB5 interaction, approximately 50 RU of a biotinylated IGF2:biotinylated ubiquitin mixture (1:8 proportion) was immobilized on the CM5-streptavidin chip. This interaction was also analysed by immobilizing the Fc-domain 11^AB5 and Fc-domain 11^AB5-RHH (or Fc-domain 11^I1572A as control) by Human Antibody Capture (monoclonal mouse anti-human IgG antibody immobilised on a CM5 chip by amine coupling, GE Healthcare) with and without human IgG1 Fc fragment (Bethyl Laboratories, UK) in the control flow cell. Increasing concentrations of IGF2^1-67, proIGF2^1-104, proIGF2^1-156 and IGF1 ranging from 0.125 to 32 nM were injected. T200 BiaEvaluation software (GE Healthcare) was used to fit the resulting curves according to a 1:1 binding model. Steady state affinities were determined using the kinetic data, taking the response average at 5 seconds before injection end and for 5 seconds average. Thermodynamic data was performed across the temperature range of 10° C. to 30° C., van't Hoff and Erying plots generated and ΔH, −TΔS and ΔG values determined as previously described.

IGF2^1-67 = target: T2, IGF2^1-67 (Homo sapiens, UniProt P01344); assay: as above; assay type: binding; details: HBS-EP pH 7.4
T2 construct: Recombinant mature (IGF2^1-67 [7.5 kDa]
T2 sequence (P01344 25-91): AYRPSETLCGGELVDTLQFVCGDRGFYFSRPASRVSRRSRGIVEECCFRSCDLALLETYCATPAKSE
Procedure: as §1, §2

IGF2^1-156 = target: T3, IGF2^1-156 (Homo sapiens, UniProt P01344); assay: as above; assay type: binding
T3 construct: pro-IGF2^1-156 [17 kDa]
T3 sequence (P01344 25-180): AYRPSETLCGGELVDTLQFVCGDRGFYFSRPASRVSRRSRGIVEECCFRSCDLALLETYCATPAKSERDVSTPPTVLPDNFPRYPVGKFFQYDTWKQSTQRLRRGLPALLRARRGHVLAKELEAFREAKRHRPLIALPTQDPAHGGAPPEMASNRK
Procedure: as §1, §2

IGF2 in human serum = assay: Neutral size fractionation of human serum before and after depletion with IGF2-TRAP beads, western blot
Sequence of IGF2 in human serum (P01344 25-91 limits assumed): as the sequence (P01344 25-91) above
Procedure: FIG. 14 IGF2-TRAP modifies the molecular distribution of IGF2 in human serum. Normal (left) and NICTH (right) sera were fractionated in a gel filtration column at neutral pH, alongside a molecular weight calibration marker, before and after incubation and depletion with IGF2-TRAP-loaded protein G beads. Elution fractions were analysed by western blot.
Changes in the molecular distribution of circulating IGF2 upon IGF2-TRAP treatment were analysed by neutral size fractionation of human serum (FIG. 14). In adult human serum, western blots of the fractions reveal that IGF2 is mainly the mature lower molecular weight isoform, and is predominantly present in a ternary complex with IGFBP3 and the acid labile subunit (ALS) (˜150 kDa), and to a lesser extent in a binary complex with IGFBP3 (˜40 kDa), with free IGF2 below the limit of detection. […] Pull-downs confirmed that the depleted IGF2 specifically bound IGF2-TRAP. In a second experiment, serum from a patient with Non-Islet-Cell Tumour-associated Hypoglycaemia (NICTH) secondary to a GIST tumour was utilised.

T1 sequence (P01344 25-128): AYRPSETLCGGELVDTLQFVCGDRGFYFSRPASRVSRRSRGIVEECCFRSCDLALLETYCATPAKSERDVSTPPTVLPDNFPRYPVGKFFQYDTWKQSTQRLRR

B1: Fc-domain 11^AB5-RHH: Fc-fusion of domain 11^AB5-RHH (IGF2-TRAP); IgG2 Fc form purified from CHO cells used for xenografts (protein)
chain: NEHDDCQVTNPSTGHLFDLSSLSGRAGFTAAYAKGWGVYMSICGENENCPPGVGACFGRTRISVGKANKRLRYVDQVLQLVYKDGSHCPSKHGLSYKSVISFVCRPEAGPTNRPMLISLDKQTCTLFFSWHTPLACEQAT
modifications: left off: a dimerising Fc or GST
notes: Fc-fusion of domain 11^AB5-RHH (IGF2-TRAP); IgG2 Fc form purified from CHO cells used for xenografts
Kinetics koff (IGF2^1-104): 0.0005 s⁻¹
Kinetics kon (IGF2^1-104): 1.29e+06 M⁻¹ s⁻¹
Kinetics koff (IGF2^1-67): 0.0014 s⁻¹
Kinetics kon (IGF2^1-67): 2.6e+06 M⁻¹ s⁻¹
Kinetics koff (IGF2^1-156; HBS-EP pH 7.4): 0.0003 s⁻¹
Kinetics kon (IGF2^1-156; may be inaccurate (mixture of three isoforms)): 0.23* ×10^6 M^−1s^−1
IGF2 distribution in serum after IGF2-TRAP depletion (IGF2 in human serum; NICTH patient serum): depleted both lower and higher molecular weight isoforms of IGF2
IGF2 distribution in serum after IGF2-TRAP depletion (IGF2 in human serum; normal adult human serum): depleted IGF2 in the binary complex
